In patent US20240360201A1 (BIOCYTOGEN PHARMACEUTICALS BEIJING, published 2024):
Read-outs that look alike come from different tables or passages of the source.

Tests used:
Assay in all cases: SPR Biacore T200; binder captured on protein A chip, target as analyte
[1] = target: T1, 6×Histidine-tagged human PD-L1 protein (hPDL1-His) (human, UniProt Q9NZQ7 19-238)
T1 construct: also called hPL1-His; His-tagged human PD-L1
Procedure: (§1) Binding affinities of the fusion proteins against human CTLA4 (hCTLA4-His) or human PD-L1 (hPDL1) were measured by surface plasmon resonance (SPR) using Biacore™ T200 biosensor equipped with pre-immobilized protein A sensor chips. A CTLA4 antibody CT4-4G12-IgG1 (CT4) was used as a control. ATOR1015-CD86 (CD86) and KN035-IgG1 (with D265A mutation in heavy chain constant domain) were also used as controls.

[2] = target: human CTLA4 (hCTLA4-His) (human, UniProt P16410 36-161, limits assumed)
Procedure: as §1

[3] = target: T1, 6×Histidine-tagged human PD-L1 protein …; remark: listed apart in the source

T1 sequence (Q9NZQ7 19-238 limits assumed): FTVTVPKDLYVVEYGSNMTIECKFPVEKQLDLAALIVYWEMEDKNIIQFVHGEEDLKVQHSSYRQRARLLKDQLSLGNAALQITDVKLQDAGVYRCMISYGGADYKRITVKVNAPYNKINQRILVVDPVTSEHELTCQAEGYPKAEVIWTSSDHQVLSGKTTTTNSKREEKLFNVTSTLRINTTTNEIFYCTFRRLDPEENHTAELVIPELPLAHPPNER
human CTLA4 (hCTLA4-His), sequence (P16410 36-161 limits assumed): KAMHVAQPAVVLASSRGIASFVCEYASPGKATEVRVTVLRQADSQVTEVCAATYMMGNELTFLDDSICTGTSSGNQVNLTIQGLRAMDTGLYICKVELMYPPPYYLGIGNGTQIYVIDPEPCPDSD

| Binder | Kd [1] [nM] | koff [1] [s⁻¹] | kon [1] [M⁻¹ s⁻¹] | Kd [2] [nM] | koff [2] [s⁻¹] | kon [2] [M⁻¹ s⁻¹] | other results |
| --- | --- | --- | --- | --- | --- | --- | --- |
| CT4-KN035-3A-knob-IgG1 (bispecific antibody, IgG1 with knobs-in-holes; KN035 on the knob chain only) heavy 1: EVQLVESGGGLVQPGGSLRLSCAASGFTFSSYTMSWVRQAPGKGLEWVATISRGGGYTSYPDSVKGRFTISRDNSKNTLYLQMNSLRAEDTAVYYCAREDYGSSYVHWFAYWGQGTLVTVSAASTKGPSVFPLAPSSKSTSGGTAALGCLVKDYFPEPVTVSWNSGALTSGVHTFPAVLQSSGLYSLSSVVTVPSSSLGTQTYICNVNHKPSNTKVDKKVEPKSCDKTHTCPPCPAPELLGGPSVFLFPPKPKDTLMISRTPEVTCVVVDVSHEDPEVKFNWYVDGVEVHNAKTKPREEQYNSTYRVVSVLTVLHQDWLNGKEYKCKVSNKALPAPIEKTISKAKGQPREPQVCTLPPSREEGGGGSGGGGSQVQLVESGGGLVQPGGSLRLSCAASGFTFSRRCMAWFRQAPGKERERVAKLLTTSGSTYLADSVKGRFTISRDNSKNTVYLQMNSLRAEDTAVYYCAADSFEDPTCTLVTSSGAFQYWGQGTLVTVSSGGGGSGGGGSVSLWCLVKGFYPSDIAVEWESNGQPENNYKTTPPVLDSDGSFFLYSKLTVDKSRWQQGNVFSCSVMHEALHNHYTQKSLSLSPGK heavy 2: not shown light: DIQMTQSPSFLSASVGDRVTITCRAGENIYSYLAWYQQKPGKAPKLLIYNARTLAEGVPSRFSGSGSGTEFTLTISSLQPEDFATYYCQHHYGSPRTFGGGTKLEIKRTVAAPSVFIFPPSDEQLKSGTASVVCLLNNFYPREAKVQWKVDNALQSGNSQESVTEQDSKDSTYSLSSTLTLSKADYEKHKVYACEVTHQGLSSPVTKSFNRGEC | 11.7 | 0.00231 | 197000 |  |  |  |  |
| CT4-KN035-3A-hole-IgG1 (bispecific antibody, IgG1 with knobs-in-holes; KN035 on the hole chain only; also called CT4-KN035-3A-kole) heavy 1: EVQLVESGGGLVQPGGSLRLSCAASGFTFSSYTMSWVRQAPGKGLEWVATISRGGGYTSYPDSVKGRFTISRDNSKNTLYLQMNSLRAEDTAVYYCAREDYGSSYVHWFAYWGQGTLVTVSAASTKGPSVFPLAPSSKSTSGGTAALGCLVKDYFPEPVTVSWNSGALTSGVHTFPAVLQSSGLYSLSSVVTVPSSSLGTQTYICNVNHKPSNTKVDKKVEPKSCDKTHTCPPCPAPELLGGPSVFLFPPKPKDTLMISRTPEVTCVVVDVSHEDPEVKFNWYVDGVEVHNAKTKPREEQYNSTYRVVSVLTVLHQDWLNGKEYKCKVSNKALPAPIEKTISKAKGQPREPQVYTLPPSRCEGGGGSGGGGSQVQLVESGGGLVQPGGSLRLSCAASGFTFSRRCMAWFRQAPGKERERVAKLLTTSGSTYLADSVKGRFTISRDNSKNTVYLQMNSLRAEDTAVYYCAADSFEDPTCTLVTSSGAFQYWGQGTLVTVSSGGGGSGGGGSVSLSCAVKGFYPSDIAVEWESNGQPENNYKTTPPVLDSDGSFFLVSKLTVDKSRWQQGNVFSCSVMHEALHNHYTQKSLSLSPGK heavy 2: not shown light: DIQMTQSPSFLSASVGDRVTITCRAGENIYSYLAWYQQKPGKAPKLLIYNARTLAEGVPSRFSGSGSGTEFTLTISSLQPEDFATYYCQHHYGSPRTFGGGTKLEIKRTVAAPSVFIFPPSDEQLKSGTASVVCLLNNFYPREAKVQWKVDNALQSGNSQESVTEQDSKDSTYSLSSTLTLSKADYEKHKVYACEVTHQGLSSPVTKSFNRGEC | 20.4 | 0.0019 | 92700 |  |  |  |  |
| 3F2-hIL7-3A (antibody, IgG1) heavy: QVQLQESGPGLVKPSETLSLTCTVSGYSITSGYNWHWIRQFPGNGLEWMGYIHHSSITNYNPSLKSRITISRDTSKNQFSLKLSSVTAADTATYYCAREGYDYDWFAYWGQGTLVTVSSASTKGPSVFPLAPSSKSTSGGTAALGCLVKDYFPEPVTVSWNSGALTSGVHTFPAVLQSSGLYSLSSVVTVPSSSLGTQTYICNVNHKPSNTKVDKKVEPKSCDKTHTCPPCPAPELLGGPSVFLFPPKPKDTLMISRTPEVTCVVVDVSHEDPEVKFNWYVDGVEVHNAKTKPREEQYNSTYRVVSVLTVLHQDWLNGKEYKCKVSNKALPAPIEKTISKAKGQPREPQVYTLPPSRDEGGGGSGGGGSDCDIEGKDGKQYESVLMVSIDQLLDSMKEIGSNCLNNEFNFFKRHICDANKEGMFLFRAARKLRQFLKMNSTGDFDLHLLKVSEGTTILLNCTGQVKGRKPAALGEAQPTKSLEENKSLKEQKKLNDLCFLKRLLQEIKTCWNKILMGTKEHGGGGSGGGGSVSLTCLVKGFYPSDIAVEWESNGQPENNYKTTPPVLDSDGSFFLYSKLTVDKSRWQQGNVFSCSVMHEALHNHYTQKSLSLSPGK light: DIVLTQSPDFQSVTPKEKVTITCRASQSISNNLHWYQQKPDESPKLLIKYASQSISGIPSRFSGSGSGTDFTLTINSVEAEDFAMYFCQQSKSWPFTFGQGTRLEIKRTVAAPSVFIFPPSDEQLKSGTASVVCLLNNFYPREAKVQWKVDNALQSGNSQESVTEQDSKDSTYSLSSTLTLSKADYEKHKVYACEVTHQGLSSPVTKSFNRGEC |  |  |  |  |  |  | Kd [3]: 0.493 nM; koff [3]: 0.000879 s⁻¹; kon [3]: 1.78e+06 M⁻¹ s⁻¹ |
| ATOR1015-CD86 (ligand, Used as control captured on a protein A chip) APLKIQAYFNETADLPCQFANSQNLSLSELVVFWQDQENLVLNEVYLGKERFDSVDSKYMGRTSFDSDSWTLRLHNLQIKDKGRYQCIIHHKKPTGMINIHQMNSELSVLA |  |  |  | 1.02 | 0.000297 | 291000 |  |
| KN035-IgG1 (D265A) (Fc fusion, not shown: a dimerising Fc or GST, Control; with D265A mutation in heavy chain constant domain; also called KN035-PDL1) VHH: QVQLVESGGGLVQPGGSLRLSCAASGFTFSRRCMAWFRQAPGKERERVAKLLTTSGSTYLADSVKGRFTISRDNSKNTVYLQMNSLRAEDTAVYYCAADSFEDPTCTLVTSSGAFQYWGQGTLVTVSS | 11.5 | 0.0204 | 1.78e+06 |  |  |  |  |

The next lines start with results.

| Kd [1] [nM] | koff [1] [s⁻¹] | kon [1] [M⁻¹ s⁻¹] | Kd [2] [nM] | koff [2] [s⁻¹] | kon [2] [M⁻¹ s⁻¹] | Binder | other results |
| --- | --- | --- | --- | --- | --- | --- | --- |
|  |  |  | 1.74 | 0.000693 | 397000 | PDL1-CD86-3A-IgG1 (antibody, IgG1) heavy: EVQLLESGGGLVQPGGSLRLSCAASGFTFSSYIMMWVRQAPGKGLEWVSSIYPSGGITFYADTVKGRFTISRDNSKNTLYLQMNSLRAEDTAVYYCARIKLGTVTTVDYWGQGTLVTVSSASTKGPSVFPLAPSSKSTSGGTAALGCLVKDYFPEPVTVSWNSGALTSGVHTFPAVLQSSGLYSLSSVVTVPSSSLGTQTYICNVNHKPSNTKVDKKVEPKSCDKTHTCPPCPAPELLGGPSVFLFPPKPKDTLMISRTPEVTCVVVDVSHEDPEVKFNWYVDGVEVHNAKTKPREEQYNSTYRVVSVLTVLHQDWLNGKEYKCKVSNKALPAPIEKTISKAKGQPREPQVYTLPPSRDEGGGGSGGGGSAPLKIQAYFNETADLPCQFANSQNLSLSELVVFWQDQENLVLNEVYLGKERFDSVDSKYMGRTSFDSDSWTLRLHNLQIKDKGRYQCIIHHKKPTGMINIHQMNSELSVLAGGGGSGGGGSVSLTCLVKGFYPSDIAVEWESNGQPENNYKTTPPVLDSDGSFFLYSKLTVDKSRWQQGNVFSCSVMHEALHNHYTQKSLSLSPGK light: QSALTQPASVSGSPGQSITISCTGTSSDVGGYNYVSWYQQHPGKAPKLMIYDVSNRPSGVSNRFSGSKSGNTASLTISGLQAEDEADYYCSSYTSSSTRVFGTGTKVTVLGQPKANPTVTLFPPSSEELQANKATLVCLISDFYPGAVTVAWKADGSPVKAGVETTKPSKQSNNKYAASSYLSLTPEQWKSHRSYSCQVTHEGSTVEKTVAPTECS |  |
|  |  |  | 1.88 | 0.000684 | 364000 | PDL1-CD86-3A-IgG4 (antibody) chain 1: EVQLLESGGGLVQPGGSLRLSCAASGFTFSSYIMMWVRQAPGKGLEWVSSIYPSGGITFYADTVKGRFTISRDNSKNTLYLQMNSLRAEDTAVYYCARIKLGTVTTVDYWGQGTLVTVSSASTKGPSVFPLAPCSRSTSESTAALGCLVKDYFPEPVTVSWNSGALTSGVHTFPAVLQSSGLYSLSSVVTVPSSSLGTKTYTCNVDHKPSNTKVDKRVESKYGPPCPSCPAPEFLGGPSVFLFPPKPKDTLMISRTPEVTCVVVDVSQEDPEVQFNWYVDGVEVHNAKTKPREEQFNSTYRVVSVLTVLHQDWLNGKEYKCKVSNKGLPSSIEKTISKAKGQPREPQVYTLPPSQEEGGGGSGGGGSAPLKIQAYFNETADLPCQFANSQNLSLSELVVFWQDQENLVLNEVYLGKERFDSVDSKYMGRTSFDSDSWTLRLHNLQIKDKGRYQCIIHHKKPTGMINIHQMNSELSVLAGGGGSGGGGSVSLTCLVKGFYPSDIAVEWESNGQPENNYKTTPPVLDSDGSFFLYSRLTVDKSRWQEGNVFSCSVMHEALHNHYTQKSLSLSLGK chain 2: QSALTQPASVSGSPGQSITISCTGTSSDVGGYNYVSWYQQHPGKAPKLMIYDVSNRPSGVSNRFSGSKSGNTASLTISGLQAEDEADYYCSSYTSSSTRVFGTGTKVTVLGQPKANPTVTLFPPSSEELQANKATLVCLISDFYPGAVTVAWKADGSPVKAGVETTKPSKQSNNKYAASSYLSLTPEQWKSHRSYSCQVTHEGSTVEKTVAPTECS |  |
| 14.1 | 0.00687 | 487000 |  |  |  | PD1-KN035-3A-IgG1 (bispecific antibody, IgG1) heavy: EVQLVESGGGLVQPGGSLRLSCAASGFTFSSYSMSWVRQAPGKRLEWVAHISSGGSSTYYPDTVKGRFTISRDNSKNTLYLQMNSLRAEDTAMYYCTRQFYYGSSFWYFDVWGAGTTVTVSSASTKGPSVFPLAPSSKSTSGGTAALGCLVKDYFPEPVTVSWNSGALTSGVHTFPAVLQSSGLYSLSSVVTVPSSSLGTQTYICNVNHKPSNTKVDKKVEPKSCDKTHTCPPCPAPELLGGPSVFLFPPKPKDTLMISRTPEVTCVVVDVSHEDPEVKFNWYVDGVEVHNAKTKPREEQYNSTYRVVSVLTVLHQDWLNGKEYKCKVSNKALPAPIEKTISKAKGQPREPQVYTLPPSREEGGGGSGGGGSQVQLVESGGGLVQPGGSLRLSCAASGFTFSRRCMAWFRQAPGKERERVAKLLTTSGSTYLADSVKGRFTISRDNSKNTVYLQMNSLRAEDTAVYYCAADSFEDPTCTLVTSSGAFQYWGQGTLVTVSSGGGGSGGGGSVSLTCLVKGFYPSDIAVEWESNGQPENNYKTTPPVLDSDGSFFLYSKLTVDKSRWQQGNVFSCSVMHEALHNHYTQKSLSLSPGK light: DNVLTQSPATLSVSPGERATLSCKASQSVDFDGDSYMNWYQQKPGQPPRLLIYAASNLESGIPARFSGSGSGTDFTLTISSVEPEDFATYYCQQSNEDPPTFGGGTKVEIKRTVAAPSVFIFPPSDEQLKSGTASVVCLLNNFYPREAKVQWKVDNALQSGNSQESVTEQDSKDSTYSLSSTLTLSKADYEKHKVYACEVTHQGLSSPVTKSFNRGEC |  |
